Assay results as given in patent publication US20200299408A1 (Genentech, published 2020).
“And” between values parts separate entries of the source, which are not always exact repeats. Equal entries are not always repeated.

Legend:
[1] = target: T1, HER2 extracellular domain (ECD) (UniProt P04626 23-652, limits assumed); test: HER2 KD relative to 4D5 (WT); assay not stated
T1 construct: extracellular domain; also called soluble HER2 extracellular domain; HER2 ECD

[2] = target: T1, HER2 extracellular domain (ECD); test: HER2 binding affinity of the HER2 arm; assay and form of HER2 not stated on the sheet or in the legend
[3] = target: T2, human HER2 on cells (human, UniProt P04626 23-1255); test: cell-based or functional assay
[4] = target: T3, single chain human CD3ε-26mer-CD3γ (CD3εγ) (human); test: Biacore, human CD3εγ on chip, TDB in flow through
T3 construct: also called human CD3εγ
T3 chain: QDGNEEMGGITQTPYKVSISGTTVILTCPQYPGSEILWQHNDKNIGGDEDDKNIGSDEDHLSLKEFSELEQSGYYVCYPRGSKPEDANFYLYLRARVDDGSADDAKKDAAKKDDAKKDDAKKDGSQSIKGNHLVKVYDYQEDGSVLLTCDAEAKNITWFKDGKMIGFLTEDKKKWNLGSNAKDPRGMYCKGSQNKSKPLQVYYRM
Method: (§1) Binding affinities for the each of the CD3/CD20 TDBs were tested by Biacore or FACS analysis, as described above for the anti-CD3 antibodies. Briefly, for Biacore binding assays, human CD3εγ was immobilized on Biacore Series S CM5 sensor chip using the amine coupling kit from Biacore and CD3/CD20 TDBs or Fab variants thereof were in the flow through. For FACS binding assays, either Bjab cells (for B cell antigens) or Jurkat cells (for CD3 antigen) were incubated with various concentrations of TDB antibodies at 4° C. for 30 minutes, then cells were washed and incubated with 2nd antibody (anti-huIgG-PE; BD Bioscience) for another 15 minutes, before cells were washed again and ready for FACS analysis.

[5] = target: T4, human CD3 on T cells (human, UniProt P07766 22-207); test: FACS on Jurkat cells (CD3); EC50 table for the curves of FIGS. 21A-21B; source E. coli
T4 construct: whole, on cells; On cells CD3ε stands in the CD3/TCR complex; also called CD3 antigen; CD3ε
Method: as §1

[6] = target: T5, murine CD3 (mouse, UniProt P22646 22-189); test: Biacore, monovalent KD of the CD3 arm; CD3 antigen not named on the sheet (reactivity mouse)
T5 construct: also called mouse CD3
T5 sequence (P22646 22-189): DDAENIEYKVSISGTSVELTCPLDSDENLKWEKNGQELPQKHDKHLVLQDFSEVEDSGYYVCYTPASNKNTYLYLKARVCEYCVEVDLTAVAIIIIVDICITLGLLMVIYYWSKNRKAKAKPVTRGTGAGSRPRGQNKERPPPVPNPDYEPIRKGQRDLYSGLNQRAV

[7] = target: T2, human HER2 on cells; test: KD (nM) box at the right of the FACS panels; method and antigen form are not stated on the sheet; taken as affinity of the HER2 arm, since the three TDBs differ only in it

B1: hu4D5.Y100A (bispecific antibody, V domains shown)
VH 1: not shown
VL 1: not shown
VH 2: EVQLVQSGAEVKKPGASVKVSCKASGYTFTNYYIHWVRQAPGQGLEWIGWIYPGDGNTKYNEKFKGRATLTADTSTSTAYLELSSLRSEDTAVYYCARDSYSNYYFDYWGQGTLVTVSS
VL 2: DIVMTQSPDSLAVSLGERATINCKSSQSLLNSRTRKNYLAWYQQKPGQPPKLLIYWASTRESGVPDRFSGSGSGTDFTLTISSLQAEDVAVYYCTQSFILRTFGQGTKVEIK
notes: not the same molecule as m28, which has the UCHT1v9 arm; also called hu4D5.Y100A-40G5c HER2-TDB
KD fold [1]: 120 fold
Kd [2]: 60 nM
EC50 of SKBR3 target cell killing [3]: > 10 µg/mL

B2: 40G5c Ecoli (bispecific antibody, V domains shown)
VH 1: EVQLVESGGGLVQPGGSLRLSCAASGYTFTSYNMHWVRQAPGKGLEWVGAIYPGNGDTSYNQKFKGRFTISVDKSKNTLYLQMNSLRAEDTAVYYCARVVYYSNSYWYFDVWGQGTLVTVSS
VL 1: DIQMTQSPSSLSASVGDRVTITCRASSSVSYMHWYQQKPGKAPKPLIYAPSNLASGVPSRFSGSGSGTDFTLTISSLQPEDFATYYCQQWSFNPPTFGQGTKVEIK
VH 2: B1 VH 2
VL 2: B1 VL 2
modifications: E. coli-produced (aglycosylated) full-length knob-into-hole IgG; constant regions are not in the letters.
notes: E. coli material, aglycosylated; also called CD3/CD20 TDB 2H7v16/40G5c produced in E. coli
Kd [4]: 71.5 nM
koff [4]: 0.0256 s⁻¹
kon [4]: 358000 M⁻¹ s⁻¹
EC50 [5]: 1.85 µg/mL and ~12 nM

B3: 2C11 (antibody, V domains shown)
VH: EVQLVESGGGLVQPGKSLKLSCEASGFTFSGYGMHWVRQAPGRGLESVAYITSSSINIKYADAVKGRFTVSRDNAKNLLFLQMNILKSEDTAMYYCARFDWDKNYWGQGTMVTVSS
VL: DIQMTQSPSSLPASLGDRVTINCQASQDISNYLNWYQQKPGKAPKLLIYYTNKLADGVPSRFSGSGSGRDSSFTISSLESEDIGSYYCQQYYNYPWTFGPGTKLEIK
Kd [6]: 22 nM

B4: hu4D5.Y100A/UCHT1v9 TDB (bispecific antibody, V domains shown)
VH 1: not shown
VL 1: not shown
VH 2: EVQLVESGGGLVQPGGSLRLSCAASGYSFTGYTMNWVRQAPGKDLEWVALINPYKGVSTYNQKFKDRFTISVDKSKNTAYLQMNSLRAEDTAVYYCARSGYYGDSDWYFDVWGQGTLVTVSS
VL 2: DIQMTQSPSSLSASVGDRVTITCRASQDIRNYLNWYQQKPGKAPKLLIYYTSRLESGVPSRFSGSGSGTDYTLTISSLQPEDFATYYCQQGNTLPWTFGQGTKLELK
notes: also called hu4D5.Y100A-TDB
Kd [7]: 190 nM
